Source: IntAct's records for PubMed 19913487

B1: ATP-dependent RNA helicase DDX3X (Homo sapiens), O00571 (parent)
chain: MSHVAVENALGLDQQFAGLDLNSSDNQSGGSTASKGRYIPPHLRNREATKGFYDKDSSGWSSSKDKDAYSSFGSRSDSRGKSSFFSDRGSGSRGRFDDRGRSDYDGIGSRGDRSGFGKFERGGNSRWCDKSDEDDWSKPLPPSERLEQELFSGGNTGINFEKYDDIPVEATGNNCPPHIESFSDVEMGEIIMGNIELTRYTRPTPVQKHAIPIIKEKRDLMACAQTGSGKTAAFLLPILSQIYSDGPGEALRAMKENGRYGRRKQYPISLVLAPTRELAVQIYEEARKFSYRSRVRPCVVYGGADIGQQIRDLERGCHLLVATPGRLVDMMERGKIGLDFCKYLVLDEADRMLDMGFEPQIRRIVEQDTMPPKGVRHTMMFSATFPKEIQMLARDFLDEYIFLAVGRVGSTSENITQKVVWVEESDKRSFLLDLLNATGKDSLTLVFVETKKGADSLEDFLYHEGYACTSIHGDRSQRDREEALHQFRSGKSPILVATAVAARGLDISNVKHVINFDLPSDIEEYVHRIGRTGRVGNLGLATSFFNERNINITKDLLDLLVEAKQEVPSWLENMAYEHHYKGSSRGRSKSSRFSGGFGARDYRQSSGASSSSFSSSRASSSRSGGGGHGSSRGFGGGGYGGFYNSDGYGGNYNSQGVDWWGN

Variants of: B1
Conditions: with pg044_vaccw OPG044, P68466

Row | Variant | effect of a mutation on the interaction
1 | F84A;F85A | disrupting interaction
